Columns and labels:
[1] = target: recombinant soluble rat GDNFRα (rat) (UniProt Q62997); experiment: binding experiments with biotinylated ligand, format not described
[2] = target: rat NTNRα, endogenous on embryonic rat spinal motoneurons (rat); experiment: cell-based or functional assay
[3] = target: recombinant soluble rat GDNFRα (rat) (UniProt Q62997); experiment: displacement of labelled rGDNF from soluble GDNFRα by 10 nM unlabeled NTN

Chain of recombinant soluble rat GDNFRα (rat) (Q62997 25-430 limits assumed): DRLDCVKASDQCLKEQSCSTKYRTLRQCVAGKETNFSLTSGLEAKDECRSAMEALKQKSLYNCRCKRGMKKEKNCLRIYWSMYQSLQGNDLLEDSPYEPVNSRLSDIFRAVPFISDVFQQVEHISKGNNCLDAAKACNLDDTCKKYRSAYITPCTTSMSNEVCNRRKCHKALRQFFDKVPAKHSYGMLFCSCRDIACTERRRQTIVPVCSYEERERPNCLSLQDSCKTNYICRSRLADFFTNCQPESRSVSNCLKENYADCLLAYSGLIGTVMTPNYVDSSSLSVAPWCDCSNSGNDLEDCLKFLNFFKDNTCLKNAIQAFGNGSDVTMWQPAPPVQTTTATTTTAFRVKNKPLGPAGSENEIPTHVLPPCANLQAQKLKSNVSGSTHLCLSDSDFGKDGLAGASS

Substance: Neurturin (NTN), species not stated at these places (ligand)
- Kd [1]: > 1000 µM
- survival of E14 rat spinal motoneurons at 72 hours [2]: 50%
- Kd [3]: 0.001 µM

— patent EP1007666B1
